From publication PMC8172134

Molecular target: SARS-CoV-2 spike prefusion stabilized ectodomain trimer (SARS-CoV-2) (UniProt P0DTC2)
Test: cryo-EM structure

47D11 Fab fragment
stoichiometry N (Fab per spike trimer): 2
